The record followed here is patent US20240141027A1 (BIOARCTIC, published 2024).

Test [1] addresses T1, recombinant murine transferrin receptor 1 (mTfR1), extracellular domain fused to a His-tag (murine, UniProt Q62351 89-763).
T1 construct: Position of the His-tag (N or C) unknown; also called recombinant mTfR1; murine TfR1; not shown: His-tag
In words: BLI (Octet), mTfR1 captured on biotinylated human holo-transferrin on streptavidin sensors. The method, then:
Binding of expressed constructs to mTfR1 was assessed by Bio-Layer Interferometry (Octet RED384, ForteBio). High-precision streptavidin sensors were loaded in two consecutive steps: first with 20 μg/ml of biotinylated human holo-transferrin (Sigma) during 180 s and then with 20 μg/ml recombinant mTfR1, produced as described in Example 4, during 180 s. Thereafter, association of the samples to the loaded sensors was measured for 120 s, followed by dissociation for 300 s. Binding was analyzed with samples diluted to 17.5 μg/ml for mAb158-scLc-8D3-Ig.1 and mAb158-scLc-8D3-Ig.2, to 18 μg/ml for mAb158-scLc-8D3-Ig.3 and to 4.9 μg/ml for 8D3 Fab (corresponding to 100 nM of respective binding molecule). The response from a buffer sample was subtracted. All samples were diluted in 1× Kinetics buffer (ForteBio). The same buffer was used for baseline and dissociation steps. […] As controls, the 8D3 Fab and the antibody mAb158 IgG were included.
(In general: Biolayer interferometry detects binding as a change in optical thickness at a sensor tip.)

Test [2] concerns the target T1, recombinant murine transferrin receptor …. The experiment in a line: indirect ELISA, plates coated with recombinant mTfR1. How it is done:
Binding of selected expressed constructs to mTfR1 was assessed by indirect ELISA (FIG. 4). In brief, half area 96-well plates (Corning, #3690) were coated with 1 μg/ml recombinant mTfR1, produced as described in Example 4, in PBS overnight at 4° C. The coated plates were blocked using Pierce protein-free blocking solution (Thermo Fisher Scientific, #37572) for 1 h at room temperature with shaking and washed four times in PBS containing 0.1% TWEEN-20. Serial dilutions (1:3) of expressed constructs in incubation buffer (1% BSA, 0.1% TWEEN-20 in PBS) were incubated for 1 h at room temperature. Following the four wash steps, bound test constructs were detected by addition of anti-mouse-IgG F(ab′)2-HRP antibody (Jackson Immuno Research, #115-035-006) at 1:1250 dilution in incubation buffer (1 h, room temperature). Following four wash steps, K-Blue® Aqueous TMB substrate (Neogen, #331177) was added to the wells for 15 min at room temperature before the reaction was stopped with 1:1 dilution of 0.5 M H₂SO₄. The optical density at 450 nm was recorded (Spark, Tecan) and background signal was subtracted before analysis.
In general terms: ELISA stands for enzyme-linked immunosorbent assay.

Test [3] addresses T2, mTfR1 expressed on cell surfaces of Immortalized Mouse Cerebral Capillary Endothelial Cells (cEND) (mouse, UniProt Q62351 1-763).
T2 construct: whole, on cells; also called mTfR1 on cEND cells
In words: flow cytometry on cEND cells, 100 nM, 4° C., anti-mouse IgG-PE. How it is done:
Binding and uptake mediated by TfR1 was measured on Immortalized Mouse Cerebral Capillary Endothelial Cells (cEND) (ABM, #T0290).
The pellet was resuspended in PBS and 200,000 cells per well were seeded in U-bottom 96-well Corning plates for flow cytometry staining. Cells were then washed with PBS and incubated with 100 nM of one of the mAb158-8D3 constructs mAb158-scLc-8D3-Ig.1, mAb158-scLc-8D3-Ig.2 and mAb158-scLc-8D3-Ig.3, control 8D3 IgG (light chain of SEQ ID NO:17, heavy chain of SEQ ID NO:19) or murine IgG control for 45 min at 4° C. After primary incubation, cells were washed twice with ice cold PBS, and mAb158-8D3 constructs were captured using a fluorescently labeled secondary anti-mouse IgG-PE antibody (BD Biosciences, 550589). After incubation, cells were washed twice with PBS and resuspended in 200 μl PBS. Cells were acquired in a BD FACSLyric flow cytometer system (BD Biosciences) and samples were analyzed using FCS Express software (De Novo Software).
(Flow cytometry measures light scatter and fluorescence of single cells or particles in a stream.)

Another test has as its target T3, recombinant Aβ1-42.
T3 construct: Coated at 0.5 µg/ml on ELISA plates; also called Amyloid Beta (Aβ1-42)
In words: indirect ELISA, plates coated with recombinant Aβ1-42.

Test [4] addresses T1, recombinant murine transferrin receptor …. In words: BLI (Octet), mTfR1 captured on holo-transferrin sensors, analyte 50 nM.

T1 sequence (Q62351 89-763): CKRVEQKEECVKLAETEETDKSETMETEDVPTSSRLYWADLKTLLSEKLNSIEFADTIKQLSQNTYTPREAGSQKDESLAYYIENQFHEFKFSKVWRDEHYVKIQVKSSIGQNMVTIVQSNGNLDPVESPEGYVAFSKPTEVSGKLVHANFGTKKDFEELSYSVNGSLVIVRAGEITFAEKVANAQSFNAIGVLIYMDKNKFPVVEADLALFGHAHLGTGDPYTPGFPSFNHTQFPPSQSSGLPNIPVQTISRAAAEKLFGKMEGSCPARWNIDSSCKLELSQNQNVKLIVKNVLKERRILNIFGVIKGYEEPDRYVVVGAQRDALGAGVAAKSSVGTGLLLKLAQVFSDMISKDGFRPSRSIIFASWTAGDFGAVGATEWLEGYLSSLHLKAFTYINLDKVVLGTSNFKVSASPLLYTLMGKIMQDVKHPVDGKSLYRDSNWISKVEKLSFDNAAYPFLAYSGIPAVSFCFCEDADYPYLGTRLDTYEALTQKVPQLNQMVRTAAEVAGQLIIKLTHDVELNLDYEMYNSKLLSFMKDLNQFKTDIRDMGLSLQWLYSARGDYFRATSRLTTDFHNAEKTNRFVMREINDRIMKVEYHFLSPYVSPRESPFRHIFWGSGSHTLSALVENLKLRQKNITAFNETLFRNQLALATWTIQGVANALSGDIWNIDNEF
T3 sequence (peptide, as listed by the source): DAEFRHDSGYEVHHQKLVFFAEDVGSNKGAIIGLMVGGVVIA
T2 sequence (Q62351 whole entry): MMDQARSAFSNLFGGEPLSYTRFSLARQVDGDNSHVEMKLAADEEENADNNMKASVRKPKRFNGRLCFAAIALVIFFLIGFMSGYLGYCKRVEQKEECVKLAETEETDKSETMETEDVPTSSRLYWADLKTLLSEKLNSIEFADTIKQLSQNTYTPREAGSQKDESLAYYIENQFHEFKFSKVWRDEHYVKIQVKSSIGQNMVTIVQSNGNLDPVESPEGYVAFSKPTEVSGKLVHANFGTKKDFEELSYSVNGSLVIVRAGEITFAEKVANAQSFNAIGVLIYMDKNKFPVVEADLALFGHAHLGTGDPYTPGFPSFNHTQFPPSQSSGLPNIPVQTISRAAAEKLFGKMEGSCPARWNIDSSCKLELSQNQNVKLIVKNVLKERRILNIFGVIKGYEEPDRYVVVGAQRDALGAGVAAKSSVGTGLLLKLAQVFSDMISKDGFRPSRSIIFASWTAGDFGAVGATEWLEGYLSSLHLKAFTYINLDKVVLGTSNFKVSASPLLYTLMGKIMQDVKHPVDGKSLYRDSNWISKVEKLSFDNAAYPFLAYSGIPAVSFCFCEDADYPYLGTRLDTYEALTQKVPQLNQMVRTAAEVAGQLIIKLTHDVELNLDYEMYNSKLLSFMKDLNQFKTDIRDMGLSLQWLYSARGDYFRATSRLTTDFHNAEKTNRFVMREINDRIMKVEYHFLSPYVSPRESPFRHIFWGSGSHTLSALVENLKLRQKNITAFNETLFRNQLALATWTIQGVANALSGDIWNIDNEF

B1: mAb158-scLc-8D3-Ig.5 (bispecific antibody, human IgG1, kappa)
heavy: not shown
chain: DIVMTQAPLSLPVSLGDQASISCRSSQSIVHSNGNTYLEWYLQKPGQSPKLLIYKVSNRFSGVPDRFSGSGSGTDFTLKISRVEAEDLGIYYCFQGSHVPPTFGGGTKLEIKRADAAPTVSIFPPSSEQLTSGGASVVCFLNNFYPKDINVKWKIDGSERQNGVLNSWTDQDSKDSTYSMSSTLTLTKDEYERHNSYTCEATHKTSTSPIVKSFNRNECGGGGSGGGGSGGGGSGGGGSGGGGSGGGGSGGGGSGGGGSGGGGSGGGGSDIVMTQAPLSLPVSLGDQASISCRSSQSIVHSNGNTYLEWYLQKPGQSPKLLIYKVSNRFSGVPDRFSGSGSGTDFTLKISRVEAEDLGIYYCFQGSHVPPTFGGGTKLEIKRADAAPTVSIFPPSSEQLTSGGASVVCFLNNFYPKDINVKWKIDGSERQNGVLNSWTDQDSKDSTYSMSSTLTLTKDEYERHNSYTCEATHKTSTSPIVKSFNRNECGGGGSGGGGSGGGGSEVQLVESGGGLVQPGNSLTLSCVASGFTFSNYGMHWIRQAPKKGLEWIAMIYYDSSKMNYADTVKGRFTISRDNSKNTLYLEMNSLRSEDTAMYYCAVPTSHYVVDVWGQGVSVTVSSGGGGSGGGGSGGGGSDIQMTQSPASLSASLEEIVTITCQASQDIGNWLAWYQQKPGKSPQLLIYGATSLADGVPSRFSGSRSGTQFSLKISRVQVEDIGIYYCLQAYNTPWTFGGGTKLELKR
notes: Format [LC-L1-LC-L2-scBM]
For the molecule B1, the binding result in test [1] is “binds”.

B2: mAb158-scLc-Ig.6 (antibody, human IgG1, kappa)
heavy: not shown
chain: DIVMTQAPLSLPVSLGDQASISCRSSQSIVHSNGNTYLEWYLQKPGQSPKLLIYKVSNRFSGVPDRFSGSGSGTDFTLKISRVEAEDLGIYYCFQGSHVPPTFGGGTKLEIKRADAAPTVSIFPPSSEQLTSGGASVVCFLNNFYPKDINVKWKIDGSERQNGVLNSWTDQDSKDSTYSMSSTLTLTKDEYERHNSYTCEATHKTSTSPIVKSFNRNECGGGGSGGGGSGGGGSGGGGSGGGGSGGGGSGGGGSGGGGSGGGGSGGGGSDIVMTQAPLSLPVSLGDQASISCRSSQSIVHSNGNTYLEWYLQKPGQSPKLLIYKVSNRFSGVPDRFSGSGSGTDFTLKISRVEAEDLGIYYCFQGSHVPPTFGGGTKLEIKRADAAPTVSIFPPSSEQLTSGGASVVCFLNNFYPKDINVKWKIDGSERQNGVLNSWTDQDSKDSTYSMSSTLTLTKDEYERHNSYTCEATHKTSTSPIVKSFNRNEC
For B2, in test [1], the binding result was “no binding”.

B3: mAb158-scLc-8D3-Ig.4 (bispecific antibody, human IgG1, kappa)
heavy: not shown
chain: DIVMTQAPLSLPVSLGDQASISCRSSQSIVHSNGNTYLEWYLQKPGQSPKLLIYKVSNRFSGVPDRFSGSGSGTDFTLKISRVEAEDLGIYYCFQGSHVPPTFGGGTKLEIKRADAAPTVSIFPPSSEQLTSGGASVVCFLNNFYPKDINVKWKIDGSERQNGVLNSWTDQDSKDSTYSMSSTLTLTKDEYERHNSYTCEATHKTSTSPIVKSFNRNECGGGGSGGGGSGGGGSGGGGSGGGGSGGGGSDIVMTQAPLSLPVSLGDQASISCRSSQSIVHSNGNTYLEWYLQKPGQSPKLLIYKVSNRFSGVPDRFSGSGSGTDFTLKISRVEAEDLGIYYCFQGSHVPPTFGGGTKLEIKRADAAPTVSIFPPSSEQLTSGGASVVCFLNNFYPKDINVKWKIDGSERQNGVLNSWTDQDSKDSTYSMSSTLTLTKDEYERHNSYTCEATHKTSTSPIVKSFNRNECGGGGSGGGGSGGGGSEVQLVESGGGLVQPGNSLTLSCVASGFTFSNYGMHWIRQAPKKGLEWIAMIYYDSSKMNYADTVKGRFTISRDNSKNTLYLEMNSLRSEDTAMYYCAVPTSHYVVDVWGQGVSVTVSSGGGGSGGGGSGGGGSDIQMTQSPASLSASLEEIVTITCQASQDIGNWLAWYQQKPGKSPQLLIYGATSLADGVPSRFSGSRSGTQFSLKISRVQVEDIGIYYCLQAYNTPWTFGGGTKLELKR
notes: Format [LC-L1-LC-L2-scBM]
Take B3: the binding result in test [1] was “binds”.

B4: mAb158-scLc-8D3-Ig.1 (bispecific antibody, human IgG1, kappa)
heavy: not shown
chain: DIVMTQAPLSLPVSLGDQASISCRSSQSIVHSNGNTYLEWYLQKPGQSPKLLIYKVSNRFSGVPDRFSGSGSGTDFTLKISRVEAEDLGIYYCFQGSHVPPTFGGGTKLEIKRADAAPTVSIFPPSSEQLTSGGASVVCFLNNFYPKDINVKWKIDGSERQNGVLNSWTDQDSKDSTYSMSSTLTLTKDEYERHNSYTCEATHKTSTSPIVKSFNRNECGGGGSGGGGSGGGGSEVQLVESGGGLVQPGNSLTLSCVASGFTFSNYGMHWIRQAPKKGLEWIAMIYYDSSKMNYADTVKGRFTISRDNSKNTLYLEMNSLRSEDTAMYYCAVPTSHYVVDVWGQGVSVTVSSGGGGSGGGGSGGGGSDIQMTQSPASLSASLEEIVTITCQASQDIGNWLAWYQQKPGKSPQLLIYGATSLADGVPSRFSGSRSGTQFSLKISRVQVEDIGIYYCLQAYNTPWTFGGGTKLELKRGGSSGSGSGSTGTSSSGTGTSAGTTGTSASTSGSGSDIVMTQAPLSLPVSLGDQASISCRSSQSIVHSNGNTYLEWYLQKPGQSPKLLIYKVSNRFSGVPDRFSGSGSGTDFTLKISRVEAEDLGIYYCFQGSHVPPTFGGGTKLEIKRADAAPTVSIFPPSSEQLTSGGASVVCFLNNFYPKDINVKWKIDGSERQNGVLNSWTDQDSKDSTYSMSSTLTLTKDEYERHNSYTCEATHKTSTSPIVKSFNRNEC
With B4, the binding result in test [2] and in test [3] was “binds” in each case.

B5: mAb158 IgG (antibody, V domains shown)
VH: EVKLMESGGGLVQPGGSRKLSCAASGFTFSSFGMHWVRQAPEKGLEWVAYISSGSSTIYYGDTVKGRFTISRDNPKNTLFLQMTSLRSEDTAMYYCAREGGYYYGRSYYTMDYWGQGTSVTVSS
VL: DIVMTQAPLSLPVSLGDQASISCRSSQSIVHSNGNTYLEWYLQKPGQSPKLLIYKVSNRFSGVPDRFSGSGSGTDFTLKISRVEAEDLGIYYCFQGSHVPPTFGGGTKLEIKR
notes: also called unmodified mAb158 IgG control; unmodified mAb158 control
As to B5, the binding result in test [1] is listed as “no binding (tested: 50 nM)”.

B6: mAb158-scLc-8D3-Ig.15 (bispecific antibody, human IgG1, kappa)
heavy: not shown
chain: DIVMTQAPLSLPVSLGDQASISCRSSQSIVHSNGNTYLEWYLQKPGQSPKLLIYKVSNRFSGVPDRFSGSGSGTDFTLKISRVEAEDLGIYYCFQGSHVPPTFGGGTKLEIKRADAAPTVSIFPPSSEQLTSGGASVVCFLNNFYPKDINVKWKIDGSERQNGVLNSWTDQDSKDSTYSMSSTLTLTKDEYERHNSYTCEATHKTSTSPIVKSFNRNECGGGGSGGGGSGGGGSGGGGSGGGGSDIQMTQSPASLSASLEEIVTITCQASQDIGNWLAWYQQKPGKSPQLLIYGATSLADGVPSRFSGSRSGTQFSLKISRVQVEDIGIYYCLQAYNTPWTFGGGTKLELKRGGGGSGGGGSGGGGSEVQLVESGGGLVQPGNSLTLSCVASGFTFSNYGMHWIRQAPKKGLEWIAMIYYDSSKMNYADTVKGRFTISRDNSKNTLYLEMNSLRSEDTAMYYCAVPTSHYVVDVWGQGVSVTVSSGGGGSGGGGSGGGGSGGGGSDIVMTQAPLSLPVSLGDQASISCRSSQSIVHSNGNTYLEWYLQKPGQSPKLLIYKVSNRFSGVPDRFSGSGSGTDFTLKISRVEAEDLGIYYCFQGSHVPPTFGGGTKLEIKRADAAPTVSIFPPSSEQLTSGGASVVCFLNNFYPKDINVKWKIDGSERQNGVLNSWTDQDSKDSTYSMSSTLTLTKDEYERHNSYTCEATHKTSTSPIVKSFNRNEC
notes: Format [LC-L1-scBM-L2-LC]; also called mAb158-scLc-Ig.15
As to B6, the binding result (with recombinant Aβ1-42; in test [4]) was “binds” each time.
